How the values were obtained:
human DR5 (full-length) [1] = molecular target: T1, human DR5 (full-length) (human, UniProt O14763 56-440); experiment: co-immunoprecipitation and Western blot with anti-6-His antibody, transfected MDA231 cells
T1 construct: whole, on cells; Whole receptor on cells (flow cytometry) or in cell lysates (co-immunoprecipitation); also called TRAIL-R2; wild-type DR5
Description: (§1) The composition of the DR5 DISC was determined as follows. […] The DR5 DISC was then precipitated overnight at 4° C. with 30 μl beads. After immunoprecipitation, the beads were washed four times with lysis buffer. The beads were then washed five times with 10 mM Tris buffer and resuspended in loading buffer for SDS-PAGE and immunoblotting analyses.

human DR5 (full-length) [2] = molecular target: T1, human DR5 (full-length); experiment: cell-based or functional assay
human DR5 (full-length) [3] = molecular target: T1, human DR5 (full-length); experiment: cell-based or functional assay; remark: listed apart in the source
human DR5 (full-length) [4] = molecular target: T1, human DR5 (full-length); experiment: co-immunoprecipitation using TRA-8, transfected HEK293A cells
Description: (§2) After 24 hours following transfection, protein expression was determined by Western blot analysis using respective monoclonal antibody. For co-immunoprecipitation analysis, cells were lysed with immunoprecipitation-lysis buffer containing a protease inhibitor cocktail.
as §1

cIAP1 [5] = molecular target: T2, cIAP1 (human, UniProt Q13490 1-618, limits assumed); experiment: co-immunoprecipitation, transfected HEK293A cells
T2 construct: also called DR5-associated cIAP1; purified cIAP1
Description: as §2

cIAP1 [6] = molecular target: T2, cIAP1; experiment: DR5 co-IP and Western blot with anti-DDX3 and anti-cIAP1 antibody

T2 sequence (Q13490 whole entry): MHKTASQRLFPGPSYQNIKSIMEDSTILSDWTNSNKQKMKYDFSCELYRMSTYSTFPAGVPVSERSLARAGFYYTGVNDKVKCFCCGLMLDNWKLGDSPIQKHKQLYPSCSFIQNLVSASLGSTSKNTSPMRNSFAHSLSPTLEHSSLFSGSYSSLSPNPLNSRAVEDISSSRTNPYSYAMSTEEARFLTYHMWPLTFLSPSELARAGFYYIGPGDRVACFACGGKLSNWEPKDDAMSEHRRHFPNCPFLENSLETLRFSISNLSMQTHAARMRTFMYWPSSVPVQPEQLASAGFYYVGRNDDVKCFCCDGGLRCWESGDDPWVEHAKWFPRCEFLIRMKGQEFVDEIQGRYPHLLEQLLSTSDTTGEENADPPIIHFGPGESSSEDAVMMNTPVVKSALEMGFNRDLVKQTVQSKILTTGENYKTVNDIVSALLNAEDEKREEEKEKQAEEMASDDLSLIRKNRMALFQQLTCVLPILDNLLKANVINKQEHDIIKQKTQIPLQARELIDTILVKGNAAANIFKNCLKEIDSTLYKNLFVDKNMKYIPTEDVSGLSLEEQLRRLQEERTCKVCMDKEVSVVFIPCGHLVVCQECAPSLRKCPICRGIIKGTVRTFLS

B1: His-tagged DDX3 C-terminal fragment (amino acids 310-662) (other)
chain: HHHHHHIRDLERGCHLLVATPGRLVDMMERGKIGLDFCKYLVLDEADRMLDMGFEPQIRRIVEQDTMPPKGVRHTMMFSATFPKEIQMLARDFLDEYIFLAVGRVGSTSENITQKVVWVEESDKRSFLLDLLNATGKDSLTLVFVETKKGADSLEDFLYHEGYACTSIHGDRSQRDREEALHQFRSGKSPILVATAVAARGLDISNVKHVINFDLPSDIEEYVHRIGRTGRVGNLGLATSFFNERNINITKDLLDLLVEAKQEVPSWLENMAYEHHYKGSSRGRSKSSRFSGGFGARDYRQSSGASSSSFSSSRASSSRSGGGGHGSSRGFGGGGYGGFYNSDGYGGNYNSQGVDWWGN
notes: also called C-terminal deletion mutant
- binding result (human DR5 (full-length) [1]): no binding

B2: TRA-8 (anti-human DR5 monoclonal antibody) (antibody, V domains shown)
VH: EVMLVESGGGLVKPGGSLKLSCAASGFTFSSYVMSWVRQTPEKRLEWVATISSGGSYTYYPDSVKGRFTISRDNAKNTLYLQMSSLRSEDTAMYYCARRGDSMITTDYWGQGTTLTVSS
VL: DIVMTQSHKFMSTSVGDRVSITCKASQDVGTAVAWYQQKPGQSPKLLIYWASTRHTGVPDRFTGSGSGTDFTLTISNVQSEDLADYFCQQYSSYRTFGGGTKLEIKR
- IC50 of TRA-8 cytotoxicity (ATP cell viability), 2LMP cells (human DR5 (full-length) [2]): 1.1 ng/mL
- IC50 of TRA-8 cytotoxicity (ATP cell viability), BT-20 cells (human DR5 (full-length) [2]): 48 ng/mL
- IC50 of TRA-8 cytotoxicity (ATP cell viability), BT-549 cells (human DR5 (full-length) [2]): 18 ng/mL
- IC50 of TRA-8 cytotoxicity (ATP cell viability), HCC38 cells (human DR5 (full-length) [2]): 0.9 ng/mL
- IC50 of TRA-8 cytotoxicity (ATP cell viability), HCC1143 cells (human DR5 (full-length) [2]): > 1000 ng/mL
- IC50 of TRA-8 cytotoxicity (ATP cell viability), HCC1187 cells (human DR5 (full-length) [2]): 24 ng/mL
- IC50 of TRA-8 cytotoxicity (ATP cell viability), HCC1599 cells (human DR5 (full-length) [2]): > 1000 ng/mL
- IC50 of TRA-8 cytotoxicity (ATP cell viability), HCC1937 cells (human DR5 (full-length) [2]): > 1000 ng/mL
- IC50 of TRA-8 cytotoxicity (ATP cell viability), MDA-MB-152 cells (human DR5 (full-length) [2]): 12 ng/mL
- IC50 of TRA-8 cytotoxicity (ATP cell viability), MDA-MB-231 cells (human DR5 (full-length) [2]): 18 ng/mL
- IC50 of TRA-8 cytotoxicity (ATP cell viability), MDA-MB-436 cells (human DR5 (full-length) [2]): 3.2 ng/mL
- IC50 of TRA-8 cytotoxicity (ATP cell viability), MDA-MB-468 cells (human DR5 (full-length) [2]): 17 ng/mL
- IC50 of TRA-8 cytotoxicity (ATP cell viability), SUM102 cells (human DR5 (full-length) [2]): 4.5 ng/mL
- IC50 of TRA-8 cytotoxicity (ATP cell viability), SUM149 cells (human DR5 (full-length) [2]): 0.9 ng/mL
- IC50 of TRA-8 cytotoxicity (ATP cell viability), SUM159 cells (human DR5 (full-length) [2]): 1.9 ng/mL
- IC50 of TRA-8 cytotoxicity (ATP cell viability), BT-474 cells (human DR5 (full-length) [3]): > 1000 ng/mL
- IC50 of TRA-8 cytotoxicity (ATP cell viability), DY36T2 (MDA-MB-361 subclone) cells (human DR5 (full-length) [3]): > 1000 ng/mL
- IC50 of TRA-8 cytotoxicity (ATP cell viability), MCF-7 cells (human DR5 (full-length) [3]): > 1000 ng/mL
- IC50 of TRA-8 cytotoxicity (ATP cell viability), MDA-MB-134 cells (human DR5 (full-length) [3]): > 1000 ng/mL
- IC50 of TRA-8 cytotoxicity (ATP cell viability), MDA-MB-453 cells (human DR5 (full-length) [3]): > 1000 ng/mL
- IC50 of TRA-8 cytotoxicity (ATP cell viability), SK-BR-3 cells (human DR5 (full-length) [3]): > 1000 ng/mL
- IC50 of TRA-8 cytotoxicity (ATP cell viability), T-47D cells (human DR5 (full-length) [3]): > 1000 ng/mL
- IC50 of TRA-8 cytotoxicity (ATP cell viability), ZR-75-1 cells (human DR5 (full-length) [3]): 683 ng/mL
- IC50 of TRA-8 cytotoxicity (ATP cell viability), ZR-75-30 cells (human DR5 (full-length) [3]): > 1000 ng/mL

B3: DDX3Δ1-350 (other, human, UniProt O00571 1-350, looked up, not shown: small tags and cut ends)
chain: MSHVAVENALGLDQQFAGLDLNSSDNQSGGSTASKGRYIPPHLRNREATKGFYDKDSSGWSSSKDKDAYSSFGSRSDSRGKSSFFSDRGSGSRGRFDDRGRSDYDGIGSRGDRSGFGKFERGGNSRWCDKSDEDDWSKPLPPSERLEQELFSGGNTGINFEKYDDIPVEATGNNCPPHIESFSDVEMGEIIMGNIELTRYTRPTPVQKHAIPIIKEKRDLMACAQTGSGKTAAFLLPILSQIYSDGPGEALRAMKENGRYGRRKQYPISLVLAPTRELAVQIYEEARKFSYRSRVRPCVVYGGADIGQQIRDLERGCHLLVATPGRLVDMMERGKIGLDFCKYLVLDEAD
notes: range 1-350; Name read as the residues kept; also called C-terminal deleted DDX3
- binding result (human DR5 (full-length) [4]): no binding

B4: DDX3Δ101-662 (other)
chain: HHHHHHRSDYDGIGSRGDRSGFGKFERGGNSRWCDKSDEDDWSKPLPPSERLEQELFSGGNTGINFEKYDDIPVEATGNNCPPHIESFSDVEMGEIIMGNIELTRYTRPTPVQKHAIPIIKEKRDLMACAQTGSGKTAAFLLPILSQIYSDGPGEALRAMKENGRYGRRKQYPISLVLAPTRELAVQIYEEARKFSYRSRVRPCVVYGGADIGQQIRDLERGCHLLVATPGRLVDMMERGKIGLDFCKYLVLDEADRMLDMGFEPQIRRIVEQDTMPPKGVRHTMMFSATFPKEIQMLARDFLDEYIFLAVGRVGSTSENITQKVVWVEESDKRSFLLDLLNATGKDSLTLVFVETKKGADSLEDFLYHEGYACTSIHGDRSQRDREEALHQFRSGKSPILVATAVAARGLDISNVKHVINFDLPSDIEEYVHRIGRTGRVGNLGLATSFFNERNINITKDLLDLLVEAKQEVPSWLENMAYEHHYKGSSRGRSKSSRFSGGFGARDYRQSSGASSSSFSSSRASSSRSGGGGHGSSRGFGGGGYGGFYNSDGYGGNYNSQGVDWWGN
notes: also called DDX3 with the first 100 amino acids deleted; DN
- binding result (cIAP1 [5]): no binding

B5: DDX3ΔCARD (DDX3Δ151-662) (other, human, UniProt O00571 151-662, looked up, not shown: small tags and cut ends)
chain: FSGGNTGINFEKYDDIPVEATGNNCPPHIESFSDVEMGEIIMGNIELTRYTRPTPVQKHAIPIIKEKRDLMACAQTGSGKTAAFLLPILSQIYSDGPGEALRAMKENGRYGRRKQYPISLVLAPTRELAVQIYEEARKFSYRSRVRPCVVYGGADIGQQIRDLERGCHLLVATPGRLVDMMERGKIGLDFCKYLVLDEADRMLDMGFEPQIRRIVEQDTMPPKGVRHTMMFSATFPKEIQMLARDFLDEYIFLAVGRVGSTSENITQKVVWVEESDKRSFLLDLLNATGKDSLTLVFVETKKGADSLEDFLYHEGYACTSIHGDRSQRDREEALHQFRSGKSPILVATAVAARGLDISNVKHVINFDLPSDIEEYVHRIGRTGRVGNLGLATSFFNERNINITKDLLDLLVEAKQEVPSWLENMAYEHHYKGSSRGRSKSSRFSGGFGARDYRQSSGASSSSFSSSRASSSRSGGGGHGSSRGFGGGGYGGFYNSDGYGGNYNSQGVDWWGN
notes: also called dominant negative mutant DDX3 lacking amino acids 1-150; truncated DDX3
- binding result (cIAP1 [6]): no binding

— US20110104143A1 (UAB RESEARCH FOUNDATION, published 2011)
